Experimental data: patent publication US20090269346A1 (RAPTOR PHARMACEUTICAL, published 2009)

How the values were obtained:
LRP2 CR89 = molecular target: T1, LRP2 CR89 (human, UniProt P98164 1025-1102); assay: solid-phase assay, coated CR protein, anti-RAP, OD450
T1 construct: domain: CR8 and CR9; also called YVWR; L2 CR89; not shown: N-terminal hexahistidine and S-peptide from pET30(+)a
Protocol: (§1) Solid phase binding assays-Purified, refolded CR protein (1 μg) was bound to Nunc Maxisorp™ 96-well plates in TBS pH 8 supplemented with 5 mM CaCl₂ (TBSC) overnight at 4° C. Wells were washed with TBSC and then blocked with TBSC containing 2% bovine serum albumin (BSA). RAP ligands were then incubated with the immobilized receptor at a range of concentrations for 2 hours in the above blocking buffer supplemented with 0.05% Tween-20 at room temperature. Control wells contained no added ligand. As an additional control, to determine whether the absence of calcium affected binding, 10 mM EGTA was included in the incubation medium for some samples. Wells were washed with TBSTC and bound ligands detected with polyclonal anti-RAP (BP41/42, 1:1,000, BioMarin). Excess primary antibody was removed and wells washed before incubation with the secondary antibody, HRP-conjugated goat anti rabbit IgG (Bio-Rad). After washing, TMB substrate solutions (Bio-Rad) were added to detect HRP. Color development was stopped with 1N HCl. Absorption at 450 nm was measured with a microplate spectrophotometer (Molecular Devices). Data were plotted and Kd values derived by non-linear regression with the assumption of single-site binding (GraphPad Prism).
(§2) One premise of this work was that amino acids at A, C, A′ and C′ within the calcium-binding loops of a CR pair were key determinants of binding affinity for RAP and would be similarly important for binding of RAP variants. To test this idea, we prepared mutants of LRP2 CR89 in which the native, non-canonical residues at these positions were sequentially substituted with the non-native, canonical residues. As defined above, the A, C, A′, C′ string for LRP2 CR89 is YVWR. Mutants included LRP2 CR89 Y1042W (WVWR), LRP2 CR89 V1047D (YDWR), LRP2 CR89 R1088D (YVWD), LRP2 CR89 V1047D R1088D (YDWD), LRP2 CR89 Y1042W V1047D R1088D (WDWD), LRP2 CR89 Y1042W V1047D (WDWR), LRP2 CR89 Y1042W R1088D (WVWD). Binding to both RAP d3 and RAPv2A d3 were measured for each LRP2 CR89 mutant by solid-phase assay. Samples were tested in triplicate. OD values from uncoated wells, receptor-coated wells incubated with buffer alone, and uncoated wells incubated with the highest ligand concentration all gave similar values for all conditions tested.

LRP2 CR89 R1088D = molecular target: T2, LRP2 CR89 R1088D (human, UniProt P98164 1022-1105); assay: as above
T2 construct: also called YVWD
Protocol: as §1, §2

LRP2 CR89 V1047D R1088D = molecular target: T3, LRP2 CR89 V1047D R1088D (human, UniProt P98164 1022-1105); assay: as above
T3 construct: also called YDWD
T3 chain: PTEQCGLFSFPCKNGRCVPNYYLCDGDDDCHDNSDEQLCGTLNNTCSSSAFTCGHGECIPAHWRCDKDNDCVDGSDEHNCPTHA
Protocol: as §1, §2

LRP2 CR89 V1047D = molecular target: T4, LRP2 CR89 V1047D (human, UniProt P98164 1022-1105); assay: as above
T4 construct: also called YDWR
T4 chain: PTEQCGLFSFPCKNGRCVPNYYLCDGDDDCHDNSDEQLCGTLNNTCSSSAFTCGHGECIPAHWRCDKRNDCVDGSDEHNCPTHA
Protocol: as §1, §2

LRP2 CR89 Y1042W = molecular target: T5, LRP2 CR89 Y1042W (human, UniProt P98164 1022-1105); assay: as above
T5 construct: also called WVWR
T5 chain: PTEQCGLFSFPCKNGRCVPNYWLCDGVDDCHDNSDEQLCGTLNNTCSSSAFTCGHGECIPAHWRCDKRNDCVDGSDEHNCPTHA
Protocol: as §1, §2

LRP2 CR89 Y1042W R1088D = molecular target: T6, LRP2 CR89 Y1042W R1088D (human, UniProt P98164 1022-1105); assay: as above
T6 construct: also called WVWD
T6 chain: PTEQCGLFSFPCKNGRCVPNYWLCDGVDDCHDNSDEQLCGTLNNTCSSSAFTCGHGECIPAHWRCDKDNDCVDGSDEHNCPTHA
Protocol: as §1, §2

[1] = molecular target: T7, LRP2 CR89 Y1042W V1047D R1088D (human, UniProt P98164 1022-1105); assay: as above
T7 construct: also called WDWD
T7 chain: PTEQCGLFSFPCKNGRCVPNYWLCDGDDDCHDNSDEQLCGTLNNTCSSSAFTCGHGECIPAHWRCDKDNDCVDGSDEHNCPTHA
Protocol: as §1, §2

LRP2 CR2728 = molecular target: T8, LRP2 CR2728 (UniProt P98164 3552-3631); assay: solid-phase binding assay, ligand at 80 nM on coated CR proteins, blank-corrected absorbance
T8 construct: domain: CR27 and CR28; its making is not described
T8 sequence (looked up): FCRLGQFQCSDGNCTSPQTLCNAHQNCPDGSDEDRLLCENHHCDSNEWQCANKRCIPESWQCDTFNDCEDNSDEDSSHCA
Protocol: as §1
(§3) Binding experiments were also carried out comparing the binding of RAP d3 and RAPv2A d3 to an array of CR pairs (FIG. 9), similar to the experiment depicted in FIG. 5. For these experiments, RAP d3 and RAPv2A d3 (or RAPv2 d3) were each incubated at 80 nM concentrations with LRP1 CR3-5, LRP6 CR12, LRP6 CR23, LRP6 CR1-3, LRP2 CR89, LRP2 CR2728, LRP2 CR3031, LRP2 CR3435, LRP2 CR34-36, VLDLR CR78, VLDLR CR6-8, MAT CR12, MAT CR23 and MAT CR34. Samples were tested twice, in duplicate, and values combined. Means and standard deviations were then calculated. Blank values obtained from wells incubated in the absence of ligand were used to correct absorbance data.

LRP2 CR3031 = molecular target: T9, LRP2 CR3031 (UniProt P98164 3677-3755); assay: as above
T9 construct: domain: CR30 and CR31; its making is not described
T9 sequence (P98164 3677-3755): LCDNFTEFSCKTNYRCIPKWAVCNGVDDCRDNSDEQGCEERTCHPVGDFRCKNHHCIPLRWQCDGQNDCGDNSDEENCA
Protocol: as §1, §3

ST14 CR12 = molecular target: T10, ST14 CR12 (human, UniProt Q9Y5Y6 452-524); assay: as above
T10 construct: also called MAT CR12; Mat CR12
T10 sequence: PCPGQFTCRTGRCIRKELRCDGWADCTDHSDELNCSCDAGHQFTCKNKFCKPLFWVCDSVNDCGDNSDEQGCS
Protocol: as §1, §3

T1 sequence (P98164 1025-1102): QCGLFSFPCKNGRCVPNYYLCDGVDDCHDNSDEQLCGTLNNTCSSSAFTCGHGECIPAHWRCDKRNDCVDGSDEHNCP

B1: wild-type RAP d3 (ligand)
chain: LDRLRRVSHQGYSTEAEFEEPRVIDLWDLEQSANLTDKELEAFREELKHFEAKIEKHNHYQKQLEIAHEKLRHAESVGDGERVSRSREKHALLEGRTKELGYTVKKHLQDLSGRISRAR
notes: expressed in E. coli from pET30(+)a; not shown: vector-encoded N-terminal tags of pET30(+)a (hexahistidine and S-peptide, as stated for the CR constructs)
- % max bind (LRP2 CR89): 7%
- % max bind (LRP2 CR89 R1088D): 7%
- % max bind (LRP2 CR89 V1047D R1088D): 6%
- % max bind (LRP2 CR89 V1047D): 6%
- % max bind (LRP2 CR89 Y1042W): 9%
- % max bind (LRP2 CR89 Y1042W R1088D): 16%
- % max bind [1]: 15%
- binding result (LRP2 CR2728): no binding (tested: 80 nM)
- binding result (LRP2 CR3031): no binding (tested: 80 nM)
- binding result (ST14 CR12): no binding (tested: 80 nM)
